Laboratory results taken from patent publication US20200283475A1.
pKd: −log10 of the molar value. Blank lines part the entries; values can stand above or below the substance they belong to.

Assays:
[1] = target: human polyclonal IgG (Gammanorm) (human); test: column breakthrough; ratio to reference Zvar4
[2] = target: human polyclonal IgG (Gammanorm) (human); test: column breakthrough, 1.0 M NaOH; ratio to reference Zvar4
[3] = target: human polyclonal IgG (Gammanorm) (human); test: column breakthrough, ligand 9.7 mg/ml; after 24 h 0.5 M NaOH
[4] = target: human polyclonal IgG (Gammanorm) (human); test: column breakthrough, ligand 9.7 mg/ml; after 24 h 1.0 M NaOH
[5] = target: human polyclonal IgG (Gammanorm) (human); test: column breakthrough, agarose beads, ligand 9.7 mg/ml, 6 min residence
[6] = target: human polyclonal IgG (Gammanorm) (human); test: as above; remark: listed apart in the source
[7] = target: human polyclonal IgG (Gammanorm) (human); test: SPR; ratio to reference Zvar4
[8] = target: human polyclonal IgG (Gammanorm) (human); test: SPR, 1 M NaOH; ratio to reference Zvar4
[9] = target: human polyclonal IgG (Gammanorm) (human); test: SPR, ligand on chip; CIP cycles 1 M NaOH
[10] = target: human polyclonal IgG (Gammanorm) (human); test: SPR, ligand on chip; CIP cycles 0.5 M NaOH
[11] = target: human polyclonal IgG (Gammanorm) (human); test: column breakthrough, ligand […]; after 24 h 0.5 M NaOH
[12] = target: human polyclonal IgG (Gammanorm) (human); test: column breakthrough, ligand 7.0 mg/ml; after 24 h 0.5 M NaOH
[13] = target: human polyclonal IgG (Gammanorm) (human); test: column breakthrough, agarose beads, ligand […], 6 min residence
[14] = target: human polyclonal IgG (Gammanorm) (human); test: column breakthrough, agarose beads, ligand 7.0 mg/ml, 6 min residence
[15] = target: human polyclonal IgG (Gammanorm) (human); test: SPR; ratio of remaining capacity to reference Zvar1
[16] = target: IgG1 monoclonal antibody (probe molecule in the Biacore kinetics); test: SPR (Biacore), ligand on CM5 chip, IgG1 mAb as probe
[17] = target: human polyclonal IgG (Gammanorm) (human); test: SPR, ligand on chip; signal left after 96-100 CIP cycles 0.5 M NaOH
[18] = target: IgG1 monoclonal antibody (probe molecule in the Biacore kinetics); test: SPR (Biacore), ligand on CM5 chip, IgG1 mAb as probe; exponent read as 10^-5
[19] = target: human polyclonal IgG (Gammanorm) (human); test: SPR; ratio to reference Zvar2
[20] = target: human polyclonal IgG (Gammanorm) (human); test: column breakthrough, ligand […]; after 24 h 1.0 M NaOH
[21] = target: human polyclonal IgG (Gammanorm) (human); test: column breakthrough, ligand 7.2 mg/ml; after 24 h 0.5 M NaOH
[22] = target: human polyclonal IgG (Gammanorm) (human); test: column breakthrough, agarose beads, ligand […], 6 min residence; remark: listed apart in the source
[23] = target: human polyclonal IgG (Gammanorm) (human); test: column breakthrough, agarose beads, ligand 7.2 mg/ml, 6 min residence
[24] = target: human polyclonal IgG (Gammanorm) (human); test: SPR; ratio to reference (the text names Zvar6)
[25] = target: human polyclonal IgG (Gammanorm) (human); test: pH 6-3 citrate gradient elution; hexamer SEQ ID NO 33 on agarose; peak 1
[26] = target: human polyclonal IgG (Gammanorm) (human); test: pH 6-3 citrate gradient elution; hexamer SEQ ID NO 33 on agarose; peak 2
[27] = target: human polyclonal IgG (Gammanorm) (human); test: column breakthrough, ligand 10.8 mg/ml; after 24 h 0.5 M NaOH
[28] = target: human polyclonal IgG (Gammanorm) (human); test: column breakthrough, agarose beads, ligand 10.8 mg/ml, 6 min residence

- Capacity retention relative to ref. after six 4 h cycles [1]: 1.53
- Capacity retention relative to ref. after six 4 h cycles [2]: 1.44
- Remaining IgG capacity Qb10 after six 4 h cycles [3]: 52 mg/mL
- Remaining IgG capacity after six 4 h cycles (%) [3]: 92%
- Remaining IgG capacity Qb10 after six 4 h cycles [4]: 48.1 mg/mL
- Remaining IgG capacity after six 4 h cycles (%) [4]: 77%
- Initial IgG capacity Qb10 [5]: 56.3 mg/mL
- Initial IgG capacity Qb10 [6]: 62.1 mg/mL
Substance: Zvar(N11K,H18K,S33K,D37E,A42R,N43A,L44I,K50R,L51Y)4 with an additional N-terminal cysteine (designed binder)

- Capacity relative to ref. 100 cycles [7]: 1.19
- Capacity relative to ref. 200 cycles [7]: 1.72
- Capacity relative to ref. 300 cycles [7]: 2.62
- Capacity relative to ref. 100 cycles [8]: 2.04
- Remaining capacity 100 cycles (%) [9]: 55%
- Remaining capacity 100 cycles (%) [10]: 80%
- Remaining capacity 200 cycles (%) [10]: 62%
- Remaining capacity 300 cycles (%) [10]: 42%
Substance: Zvar(Q9A,N11E,N28A,N43A)4 (designed binder)

- Remaining IgG capacity Qb10 after six 4 h cycles [11]: 46.2 mg/mL
- Remaining IgG capacity after six 4 h cycles (%) [11]: 93%
- Remaining IgG capacity Qb10 after six 4 h cycles [12]: 44.1 mg/mL
- Remaining IgG capacity after six 4 h cycles (%) [12]: 90%
- Initial IgG capacity Qb10 [13]: 50 mg/mL
- Initial IgG capacity Qb10 [14]: 49.1 mg/mL
Substance: Zvar(Q9A,N11E,N28A,N43A)4 with an additional N-terminal cysteine (designed binder)

- Capacity relative to reference [15]: 1.4
- pKd [16]: 8.97
- kon [16]: 410000 M⁻¹ s⁻¹
- Capacity after 96-100 cycles [17]: 66%
- koff [18]: 0.000437 s⁻¹
Substance: Zvar(Q9A,N11E,Q40V,A42K,N43A,L44I)1 (designed binder)

- Capacity relative to ref. 100 cycles [19]: 1.31
- Remaining capacity 100 cycles (%) [10]: 72%
Substance: Zvar(Q9A,N11E,Q40V,A42K,N43A,L44I)2 with YEDG inserted in linker between K58 and V1 (designed binder)

- Capacity relative to ref. 100 cycles [7]: 1.34
- Capacity relative to ref. 200 cycles [7]: 2.06
- Capacity relative to ref. 300 cycles [7]: 3.56
- Capacity relative to ref. 100 cycles [8]: 2.07
- Remaining capacity 100 cycles (%) [9]: 56%
- Remaining capacity 100 cycles (%) [10]: 90%
- Remaining capacity 200 cycles (%) [10]: 74%
- Remaining capacity 300 cycles (%) [10]: 57%
Substance: Zvar(Q9A,N11E,Q40V,A42K,N43A,L44I)4 (designed binder)

- Capacity retention relative to ref. after six 4 h cycles ([1]; ligand content 7.2 mg/ml): 1.5
- Remaining IgG capacity Qb10 after six 4 h cycles [11]: 53.6 mg/mL
- Remaining IgG capacity after six 4 h cycles (%) [11]: 95%
- Remaining IgG capacity Qb10 after six 4 h cycles [20]: 56 mg/mL
- Remaining IgG capacity after six 4 h cycles (%) [20]: 93%
- Capacity retention relative to ref. after six 4 h cycles [2]: 1.67
- Remaining IgG capacity Qb10 after six 4 h cycles [21]: 44.2 mg/mL
- Remaining IgG capacity after six 4 h cycles (%) [21]: 90%
- Initial IgG capacity Qb10 [13]: 56.3 mg/mL
- Initial IgG capacity Qb10 [22]: 60.3 mg/mL
- Initial IgG capacity Qb10 [23]: 49 mg/mL
Substance: Zvar(Q9A,N11E,Q40V,A42K,N43A,L44I)4 with an additional N-terminal cysteine (designed binder)

- Remaining capacity 100 cycles (%) [10]: 87%
- Capacity relative to ref. 100 cycles [24]: 1.3
- Elution pH [25]: 4.24 pH
- Elution pH [26]: 3.81 pH
Substance: Zvar(Q9A,N11E,Q40V,A42K,N43A,L44I)6 (designed binder)

- Capacity relative to ref. 100 cycles [7]: 1.25
- Capacity relative to ref. 200 cycles [7]: 1.81
- Capacity relative to ref. 300 cycles [7]: 3
- Capacity relative to ref. 100 cycles [8]: 2
- Remaining capacity 100 cycles (%) [9]: 54%
- Remaining capacity 100 cycles (%) [10]: 84%
- Remaining capacity 200 cycles (%) [10]: 65%
- Remaining capacity 300 cycles (%) [10]: 48%
Substance: Zvar(Q9A,N11E,Q40V,A42K,N43E,L44I)4 (designed binder)

- Capacity retention relative to ref. after six 4 h cycles [1]: 1.3
- Remaining IgG capacity Qb10 after six 4 h cycles [27]: 52.5 mg/mL
- Remaining IgG capacity after six 4 h cycles (%) [27]: 92%
- Initial IgG capacity Qb10 [28]: 56.9 mg/mL
Substance: Zvar(Q9A,N11K,H18K,D37E,A42R)4 with an additional N-terminal cysteine (designed binder)
